One molecule from patent US20210040232A1 (Regeneron, published 2021) can be followed below.

A word on the IC50: it is the concentration that gives 50% inhibition. For orientation: EC50 means the concentration giving half of the maximal effect. A lower EC50 goes with higher potency in that assay. As a reminder, the Kd is the constant that tells how readily two partners part at equilibrium. Read a high Kd as lower affinity. The koff is the first-order rate constant of dissociation. A high value points to fast dissociation. As a reminder, the kon is the rate constant with which the complex forms. A higher kon goes with fast association.

For assay [1], the target named is T1, recombinant hCTLA-4-mFc (human CTLA-4 extracellular domain with a C-terminal Fc portion of mouse IgG2a) (human).
T1 construct: also called dimeric CTLA-4 protein
Put plainly: competition ELISA, 200 pM hCTLA-4-mFc on plate-coated hB7-1-hIgG1-6His; * value below theoretical bottom of assay. On the technique in general: In an ELISA, binding on a coated surface is turned into a signal by an enzyme label.

For assay [2], the target named is T1, recombinant hCTLA-4-mFc (human CTLA-4 …). Put plainly: competition ELISA, 200 pM hCTLA-4-mFc on plate-coated hB7-1-hIgG1-6His.
Assay [3] shares this target. The assay can be described thus: competition ELISA, 400 pM hCTLA-4-mFc on plate-coated hB7-2-hIgG1-6His; * value below theoretical bottom of assay.
Assay [4] concerns the target T2, human CTLA-4 (amino acids M1-N223) on stably transfected VI-fibroblast cells (human, UniProt P16410 36-223).
T2 construct: also called VI-fibroblast/hCTLA-4
The assay can be described thus: ECL cell binding, VI-fibroblast/hCTLA-4 cells.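 Further: antibodies bound to the cells on carbon electrode plates, detected via SULFO-TAG anti-IgG secondary (1 h, RT), electrochemiluminescence read as RLU over a concentration range.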

In assay [5] the target is T1, recombinant hCTLA-4-mFc (human CTLA-4 …). The assay can be described thus: competition ELISA, 400 pM hCTLA-4-mFc on plate-coated hB7-2-hIgG1-6His.
The target of assay [6] is T3, soluble Macaca fascicularis CTLA-4 expressed with a C-terminal myc-myc-polyhistidine tag (Macaca fascicularis).
T3 construct: soluble protein; also called mf CTLA-4.mmh; mfCTLA4.mmh
T3 chain: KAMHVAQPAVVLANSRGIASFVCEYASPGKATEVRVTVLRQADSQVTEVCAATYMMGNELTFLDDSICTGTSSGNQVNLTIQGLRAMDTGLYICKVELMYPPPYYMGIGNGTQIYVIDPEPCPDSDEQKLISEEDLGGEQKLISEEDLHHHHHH
The assay can be described thus: SPR, mAb capture, 25 C. For orientation: In SPR one partner is held on a chip, and binding of the other changes the refractive index at the surface.

For assay [7], the target named is T4, soluble human CTLA-4 expressed with a C-terminal myc-myc-polyhistidine tag (human).
T4 construct: soluble protein; also called hCTLA-4.mmh; hCTLA4.mmh
The assay can be described thus: SPR, mAb capture, 25 C.

T4 sequence (chain, as listed by the source limits assumed): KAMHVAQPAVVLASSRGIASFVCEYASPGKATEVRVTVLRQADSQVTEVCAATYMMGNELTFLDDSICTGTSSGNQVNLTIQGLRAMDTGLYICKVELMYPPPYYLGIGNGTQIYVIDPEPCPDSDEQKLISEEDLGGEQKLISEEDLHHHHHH
T1 sequence (chain, as listed by the source limits assumed): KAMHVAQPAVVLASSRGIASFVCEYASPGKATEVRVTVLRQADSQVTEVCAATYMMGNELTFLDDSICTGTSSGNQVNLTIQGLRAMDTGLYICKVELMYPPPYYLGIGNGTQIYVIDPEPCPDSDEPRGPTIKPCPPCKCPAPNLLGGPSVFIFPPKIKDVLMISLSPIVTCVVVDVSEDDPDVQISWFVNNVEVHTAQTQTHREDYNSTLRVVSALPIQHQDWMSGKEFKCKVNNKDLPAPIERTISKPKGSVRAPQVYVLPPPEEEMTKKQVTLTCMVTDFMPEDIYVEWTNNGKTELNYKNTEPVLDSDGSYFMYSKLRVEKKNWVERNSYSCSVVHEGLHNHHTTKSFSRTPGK
T2 sequence (P16410 36-223 limits assumed): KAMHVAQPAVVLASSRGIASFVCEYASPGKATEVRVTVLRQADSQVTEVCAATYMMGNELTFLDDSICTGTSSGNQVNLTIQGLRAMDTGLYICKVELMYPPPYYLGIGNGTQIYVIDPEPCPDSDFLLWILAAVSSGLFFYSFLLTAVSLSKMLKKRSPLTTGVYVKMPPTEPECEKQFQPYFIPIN

B1: H1H19281P (antibody, human IgG1, V domains shown)
VH: QVQLVESGGGVVQPGRSLRLSCAASGLTFSYYGMHWVRQAPGKGLEWVAVISYDGSNKYYADSVKGRFTISRDNSKNTLYLQMNSLRAEDAAVYYCAKDLGGDDYYGMDVWGQGTTVTVSS
VL: EIVLTQSPGTLSLSPGERATLSCRASQSVSRTYLAWYQQKPGQAPRLLIYGAFSRATGIPDRFSGSGSGTDFTLTISRLEPEDFAVYYCQQYGSSPYTFGQGTKLEIK
Consider B1, for which, in assay [1], the IC50 turned out to be 0.094 nM. The “% Blockade” value in assay [2] was found to be 99%. Moreover, in assay [3], the IC50 came out at 0.19 nM. Further, in assay [4], the EC50 was found to be 0.075 nM and the “ratio of RLU signal to parental VI-fibroblast at 0.4 nM Ab” value amounted to 23 ratio. Moreover, the “% Blockade” value in assay [5] came out at 100%. In assay [6], this molecule came in with a Kd of 2.14 nM, a koff of 0.00101 s⁻¹, a kon of 472000 M⁻¹ s⁻¹ and a t1/2 of 11.5 min. For the same molecule, in assay [7], the Kd amounted to 1.53 nM, the koff worked out at 0.000741 s⁻¹, the kon was found to be 484000 M⁻¹ s⁻¹ and the t1/2 amounted to 15.6 min.
